In patent publication US8703915B2, “Mutant proteins and methods for producing them” (Heptares Therapeutics Limited, priority 2009, dated 2014):
Substitutions are numbered along the chain they refer to. Numbers in names are those of the source.

B1: M93A: 5HT2C receptor mutant, M93 to alanine (protein, UniProt P28335 33-458, looked up, variant M93A)
5-hydroxytryptamine receptor …: IVTDIFNTSDGGRFKFPDGVQNWPALSIVIIIIMTIGGNILVIMAVSMEKKLHNATNYFLASLAIADMLVGLLVMPLSLLAILYDYVWPLPRYLCPVWISLDVLFSTASIMHLCAISLDRYVAIRNPIEHSRFNSRTKAIMKIAIVWAISIGVSVPIPVIGLRDEEKVFVNNTTCVLNDPNFVLIGSFVAFFIPLTIMVITYCLTIYVLRRQALMLLHGHTEEPPGLSLDFLKCCKRNTAEEENSANPNQDQNARRRKKKERRPRGTMQAINNERKASKVLGIVFFVFLIMWCPFFITNILSVLCEKSCNQKLMEKLLNVFVWIGYVCSGINPLVYTLFNKIYRRAFSNYLRCNYKVEKKPPVRQIPRVAATALSGRELNVNIYRHTNEPVIEKASDNEPGIEMQVENLELPVNPSSVVSERISSV
B2: 1363: 5HT2C receptor mutant, residue 7.48 to alanine (protein, listed as Homo sapiens)
chain: MVNLRNAVHSFLVHLIGLLVWQCDISVSPVAAIVTDIFNTSDGGRFKFPDGVQNWPALSIVIIIIMTIGGNILVIMAVSMEKKLHNATNYFLMSLAIADMLVGLLVMPLSLLAILYDYVWPLPRYLCPVWISLDVLFSTASIMHLCAISLDRYVAIRNPIEHSRFNSRTKAIMKIAIVWAISIGVSVPIPVIGLRDEEKVFVNNTTCVLNDPNFVLIGSFVAFFIPLTIMVITYCLTIYVLRRQALMLLHGHTEEPPGLSLDFLKCCKRNTAEEENSANPNQDQNARRRKKKERRPRGTMQAINNERKASKVLGIVFFVFLIMWCPFFITNILSVLCEKSCNQKLMEKLLNVFVWIGYVCSGANPLVYTLFNKIYRRAFSNYLRCNYKVEKKPPVRQIPRVAATALSGRELNVNIYRHTNEPVIEKASDNEPGIEMQVENLELPVNPSSVVSERISSV
B3: P365A: 5HT2C receptor NPLVY motif mutant P365A (protein, UniProt P28335 33-458, looked up, variant P365A)
5-hydroxytryptamine receptor …: B1 5-hydroxytryptamine receptor … with A61M, P333A
B4: V367A: 5HT2C receptor NPLVY motif mutant V367A (protein, UniProt P28335 33-458, looked up, variant V367A)
5-hydroxytryptamine receptor …: B1 5-hydroxytryptamine receptor … with A61M, V335A
B5: Y368A: 5HT2C receptor NPLVY motif mutant Y368A (protein, UniProt P28335 33-458, looked up, variant Y368A)
5-hydroxytryptamine receptor …: B1 5-hydroxytryptamine receptor … with A61M, Y336A
B6: N364A: 5HT2C receptor NPLVY motif mutant N364A (protein, UniProt P28335 33-458, looked up, variant N364A)
5-hydroxytryptamine receptor …: B1 5-hydroxytryptamine receptor … with A61M, N332A
B7: P285A: adenosine A2A receptor NPFIY motif mutant P285A (protein, UniProt P29274 1-412, looked up, variant P285A)
Adenosine receptor A2a: MPIMGSSVYITVELAIAVLAILGNVLVCWAVWLNSNLQNVTNYFVVSLAAADIAVGVLAIPFAITISTGFCAACHGCLFIACFVLVLTQSSIFSLLAIAIDRYIAIRIPLRYNGLVTGTRAKGIIAICWVLSFAIGLTPMLGWNNCGQPKEGKNHSQGCGEGQVACLFEDVVPMNYMVYFNFFACVLVPLLLMLGVYLRIFLAARRQLKQMESQPLPGERARSTLQKEVHAAKSLAIIVGLFALCWLPLHIINCFTFFCPDCSHAPLWLMYLAIVLSHTNSVVNAFIYAYRIREFRQTFRKIIRSHVLRQQEPFKAAGTSARVLAAHGSDGEQVSLRLNGHPPGVWANGSAPHPERRPNGYALGLVSGGSAQESQGNTGLPDVELLSHELKGVCPEPPGLDDPLAQDGAGVS
B8: F286A: adenosine A2A receptor NPFIY motif mutant F286A (protein, UniProt P29274 1-412, looked up, variant F286A)
Adenosine receptor A2a: B7 Adenosine receptor A2a with A285P, F286A
B9: 287A: adenosine A2A receptor NPFIY motif mutant, residue 287 to alanine (protein, UniProt P29274 1-412, looked up, variant I287A)
Adenosine receptor A2a: B7 Adenosine receptor A2a with A285P, I287A
B10: Y288A: adenosine A2A receptor NPFIY motif mutant Y288A (protein, UniProt P29274 1-412, looked up, variant Y288A)
Adenosine receptor A2a: B7 Adenosine receptor A2a with A285P, Y288A

What follows are molecules tested on 5HT2C receptor (assay: Thermostability of 5HT2C receptor bound to agonist SCH23390). Details: agonist SCH23390 bound, versus parent 5HT2C.
Assay type: physicochemical, human
Procedure: An alanine scan has been carried out on the 5HT2C receptor in the presence of the agonist SCH23390 in order to stabilise the agonist conformation. Similar to A2A, it appears that mutating L2.46 (L95 in 5HT2C) to alanine confers significant stability on this receptor increasing the Tm of the receptor by 5.4° C. (FIG. 7). It is notable that in addition to L95, mutating the nearby M93 (two residues away from L2.46) to alanine also confers stability to the agonist bound receptor, resulting in an increase of 2.9° C.
A2AR-(2-316) expression was carried out by using the pRG/III-hs-MBP E. coli expression vector and DH5α cells. Cells were grown at 37° C. in 2 L flasks containing 500 mL of 2×TY medium supplemented with Ampicillin (100 μg/mL) and glucose (0.2% w/v). At OD600≈0.7, IPTG and theophylline were added at final concentrations respectively of 0.5 mM and 100 μM, and the temperature was reduced to 20° C. After 22 to 24 hours, cells were harvested in aliquots of 14 mL, centrifuged for 30 min and stored at −20° C. Both 5HT2C and M4 receptors were transiently expressed in HEK293T cells using GeneJuice transfection reagent used according to the manufacturers guidelines.
5HT2C receptor was solubilised from transiently transfected mammalian cells in 50 mM Hepes pH7.4, 100 mM KCl, 0.5% DDM (0.1% CHS/0.6% CHAPS was added to cells for SCH23390 agonist assay). Tm analysis was performed directly on the soluble lysate. The Tm was determined by incubating 108 μl of the lysate with [N^6-methyl-^3H]Mesulergine radioligand at a final concentration of 17 nM or 9 nM [^3H]SCH23390 for one hour at 4° C. The six ligand incubations are then incubated at six different temperatures from 25° C. to 55° C., for thirty minutes. Receptor bound and free radioligand were separated using a 96-well plate gel filtration assay.
(§1) 5HT2C receptor was solubilised from transiently transfected mammalian cells about 40 hours post transfection, in 50 mM Hepes pH7.4/100 mM KCl/0.5% DDM/(0.1% CHS/0.6% CHAPS was added to cells for SCH23390 agonist assay) and protease inhibitor. Cell lysates were left at 4° C. on a rotator and then cleared by centrifugation at 13,200 rpm for 20 minutes at 4° C. Thermostability analysis was performed directly on the soluble lysate. The Tm was determined by incubating 108 μl of the lysate with [N^6-methyl-^3H]Mesulergine radioligand at a final concentration of 17 nM or 9 nM [^3H]SCH23390 for one hour at 4° C. The six ligand incubations are then incubated at six different temperatures from 25° C. to 55° C., for thirty minutes. Receptor bound and free radioligand were separated using G25 Sephadex spin columns.

Molecule	increase of Tm [°C]
B1	2.9

Same assay, conditions: bound to agonist SCH23390

Molecule	Tm [°C]
B1	45.6

Each molecule was assayed on 5HT2C receptor (assay: Two point thermostability assay, SCH23390 agonist binding to 5HT2C alanine scan mutants). Details: not given.
Assay type: physicochemical, human
Procedure: An alanine scan has been carried out on the 5HT2C receptor in the presence of the agonist SCH23390 in order to stabilise the agonist conformation.
as §1

Molecule	thermostability (agonist binding at the destabilising temperature compared to wild type)
B2	increased agonist binding compared to the wild type receptor

These molecules were tested on 5HT2C receptor (assay: Antagonist binding to 5HT2C NPxxY motif alanine mutants (Table 1)). Details: antagonist Mesulergine binding.
Design: species or system human; Average / Average - BG: unit not given here
Procedure: (§2) An alanine scan was carried out in a similar fashion on an adenosine A2A receptor along with the 5HT2C receptor in the presence of the antagonist Mesulergine. Both alanine scans were carried out in order to further stabilize the antagonist conformation. […] The motif in Adenosine A2A is NPFIY (SEQ ID NO: 364) and for the 5HT2C is NPLVY (SEQ ID NO: 363). Therefore mutations in this region of the receptor contain stabilising mutations specific to the agonist conformation and detrimentally effect antagonist binding.
as §1

Molecule	% of Wildtype binding [%]
B3	14.94
B4	22.25
B5	11.22
B6	36.35

Same assay, conditions: antagonist Mesulergine binding, replicate 1

Molecule	DPM1 [DPM]
B3	1855
B4	2512
B5	1328
B6	3988

Same assay, conditions: antagonist Mesulergine binding, replicate 2

Molecule	DPM2 [DPM]
B3	1760
B4	2449
B5	1602
B6	3569

Same assay, conditions: average minus background

Molecule	Average - BG
B3	1376
B4	2049
B5	1033.5
B6	3347

Same assay, conditions: average of DPM1 and DPM2

Molecule	Average
B3	1807.5
B4	2480.5
B5	1465
B6	3778.5

These molecules were tested on adenosine A2A receptor (assay: Antagonist binding to adenosine A2A NPxxY motif alanine mutants (Table 1)). Details: antagonist binding.
Design: species or system human
Procedure: as §2
Adenosine A2A receptor was solubilised from transiently transfected mammalian cells about 36 hours post transfection, in 50 mM Tris pH7.4/400 mM NaCl/0.5% DDM and protease inhibitor. Cell lysates were left at 4° C. on a rotator and then cleared by centrifugation at 13,200 rpm for 20 minutes at 4° C. Solubilised receptors were then purified on Ni-NTA beads and eluted with 50 mM histidine. The eluted receptor was used in radioligand binding assay. The Tm was determined by incubating 108 μl of the eluate with Zm241385 radioligand at a final concentration of 100 nM for one hour at 4° C. The six ligand incubations are then incubated at six different temperatures from 20° C. to 50° C., for thirty minutes. Receptor bound and free radioligand were separated using G25 Sephadex spin columns.

Molecule	% of Wildtype binding [%]
B7	7.69
B8	0.13
B9	2.78
B10	14.74

Same assay, conditions: antagonist binding, replicate 1

Molecule	DPM1 [DPM]
B7	1488
B8	519
B9	888
B10	2150

Same assay, conditions: antagonist binding, replicate 2

Molecule	DPM2 [DPM]
B7	1471
B8	514
B9	820
B10	2602

Same assay, conditions: average minus background

Molecule	Average - BG
B7	979.5
B8	16.5
B9	354
B10	1876

Same assay, conditions: average of DPM1 and DPM2

Molecule	Average
B7	1479.5
B8	516.5
B9	854
B10	2376
